Legend:
Conditions in all cases: both partners purified
[1] = target: T1, Phosphorylated 2N4R tau produced in SF9 cells (human, UniProt P10636-8 1-441, phosphorylated (hyperphosphorylated forms; intermediate tau phosphorylation state); sites not given); assay: SPR; SORL1 VPS10 domain amine-coupled to a CM5 chip; tau in single cycle titrations (3.8-310 nM); 0.15 M NaCl, 0.05% Tween 20, 1 mM CaCl2 pH 7.4; equilibrium analysis (Req from a pseudo-first-order fit)
T1 construct: also called 2N4R SF9; SF9 tau; source: SF9 cells (baculovirus), purified (boiled lysate, HisTrap)

[2] = target: T2, Recombinant human 2N4R tau (full-length tau), WT (human, UniProt P10636-8 1-441); assay: SPR; SORL1 VPS10 domain amine-coupled to a CM5 chip; tau in single cycle titrations (3.8-310 nM); 0.15 M NaCl, 0.05% Tween 20, 1 mM CaCl2 pH 7.4; kinetic analysis, 1:1 fit, KD calculated from the kinetic parameters
T2 construct: the His tag applies only to the in-house protein; The uptake assays used 125I-labeled R&D SP-495; also called monomeric tau; microtubule-associated protein tau; source: His-tagged, E. coli, purified, or bought: R&D Systems (SP-495)

[3] = target: T1, Phosphorylated 2N4R tau produced in SF9 …; assay: as above

T2 sequence (P10636 other isoform, or with tags, fused parts or gaps): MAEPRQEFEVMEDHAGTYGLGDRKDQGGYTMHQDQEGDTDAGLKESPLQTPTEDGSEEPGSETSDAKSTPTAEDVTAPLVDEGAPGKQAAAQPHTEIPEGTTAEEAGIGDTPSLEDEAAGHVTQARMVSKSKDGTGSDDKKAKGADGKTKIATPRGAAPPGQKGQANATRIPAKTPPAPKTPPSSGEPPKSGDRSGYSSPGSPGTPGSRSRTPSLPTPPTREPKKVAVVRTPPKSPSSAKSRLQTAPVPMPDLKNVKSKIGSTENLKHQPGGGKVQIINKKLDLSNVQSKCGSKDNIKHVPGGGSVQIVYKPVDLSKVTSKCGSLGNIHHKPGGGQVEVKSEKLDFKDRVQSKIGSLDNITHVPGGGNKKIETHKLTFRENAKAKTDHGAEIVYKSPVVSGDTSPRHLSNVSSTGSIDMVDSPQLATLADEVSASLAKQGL
T1 sequence (P10636 other isoform, or with tags, fused parts or gaps): as above

Kd [1]: 95 nM | Kd [2]: 15 nM | koff [2]: 0.41 s⁻¹ | kon [2]: 5e+07 M⁻¹ s⁻¹ | Kd [3]: 78 nM | koff [3]: 0.0061 s⁻¹ | kon [3]: 85000 M⁻¹ s⁻¹
B1: Recombinant human SORL1 VPS10 domain, aa 82 to 753 (domain or fragment, UniProt Q92673 82-753, looked up)
chain: SAALQPEPIKVYGQVSLNDSHNQMVVHWAGEKSNVIVALARDSLALARPKSSDVYVSYDYGKSFKKISDKLNFGLGNRSEAVIAQFYHSPADNKRYIFADAYAQYLWITFDFCNTLQGFSIPFRAADLLLHSKASNLLLGFDRSHPNKQLWKSDDFGQTWIMIQEHVKSFSWGIDPYDKPNTIYIERHEPSGYSTVFRSTDFFQSRENQEVILEEVRDFQLRDKYMFATKVVHLLGSEQQSSVQLWVSFGRKPMRAAQFVTRHPINEYYIADASEDQVFVCVSHSNNRTNLYISEAEGLKFSLSLENVLYYSPGGAGSDTLVRYFANEPFADFHRVEGLQGVYIATLINGSMNEENMRSVITFDKGGTWEFLQAPAFTGYGEKINCELSQGCSLHLAQRLSQLLNLQLRRMPILSKESAPGLIIATGSVGKNLASKTNVYISSSAGARWREALPGPHYYTWGDHGGIITAIAQGMETNELKYSTNEGETWKTFIFSEKPVFVYGLLTEPGEKSTVFTIFGSNKENVHSWLILQVNATDALGVPCTENDYKLWSPSDERGNECLLGHKTVFKRRTPHATCFNGEDFDRPVVVSNCSCTREDYECDFGFKMSEDLSLEVCVPDPEFSGKSYSPPVPCPVGSTYRRTRGYRKISGDTCSGGDVEARLEGELVPCP
notes: VPS10 domain of sortilin-related receptor 1 (SORL1), human, residues 82-753; also called vacuolar protein sorting 10 domain of SORL1; VPS10 peptide; source: bought: R&D Systems (9880-LA)

Source: PMC11145553, “SORL1 is a receptor for tau that promotes tau seeding” (The Journal of Biological Chemistry, 2024)
